Results as given in publication PMC4728340, “Structure of the polyisoprenyl-phosphate glycosyltransferase GtrB and insights into the mechanism of catalysis” (Nature Communications, 2016).

Target: the molecule itself
Experiment: crystal structure; purified protein in n-decyl-beta-D-maltopyranoside (DM); sitting drop vapour diffusion at 22 °C, 16-18% PEG600, 0.12 M Tris/HCl pH 9.0, 0.1 M NaCl, 1 mM TCEP; crystals soaked with 5 mM MnCl2 and 25 mM UDP-glucose; space group C2, one tetramer in the asymmetric unit

Row | Protein | stoichiometry N | binding result
1 | GtrB from Synechocystis sp. PCC6803 (enzyme, Synechocystis sp. PCC 6803, UniProt Q55487 1-318, looked up, GtrB, polyisoprenyl-phosphate glycosyltransferase, Synechocystis sp; PCC 6803, UniProt Q55487; open reading frame amplified from genomic DNA; a TEV protease cleavage site stands between the tag and the protein; Vector pMCSG7; A selenomethionine-substituted form was used for phasing only; In the deposited coordinates each protomer is divided into two chains; also called GtrBSyn; WT) MTIELSIVIPMYNEEDNLEHLFARLLEVLTPLKITYEIICVNDGSKDKTLKQLIDCYQSNRQIKIVNLSRNFGKEIALSAGIDYAQGNAVIPIDADLQDPPELIHELVDKWREGYDIVYATRRSRQGETWVKQFTAKMFYKVIGRMTEIKIPPNTGDFRLMDRKVVNAIKQLPERTRFMKGLFAWVGYRQTFVLFDREPRFQGQTKWNYWKLWNFALDGIFSFSLLPLKVWTYLGSIISLLSLAYASFLILKTITLGVDVPGYASLMVAILFLGGVQLISLGVIGEYLGRVYEEVKARPLYLVSDLWGLEYLPLEKLN | 4 | 
2 | GtrB from Synechocystis sp. PCC6803, point mutant F215A (enzyme, Synechocystis sp. PCC 6803, UniProt Q55487 1-318, looked up, GtrB, Synechocystis sp; PCC 6803, UniProt Q55487, same construct as m1 with the point mutation F215A (QuikChange); also called GtrB (F215A); source: E. coli, purified and crystallized in the same way as the wild type) MTIELSIVIPMYNEEDNLEHLFARLLEVLTPLKITYEIICVNDGSKDKTLKQLIDCYQSNRQIKIVNLSRNFGKEIALSAGIDYAQGNAVIPIDADLQDPPELIHELVDKWREGYDIVYATRRSRQGETWVKQFTAKMFYKVIGRMTEIKIPPNTGDFRLMDRKVVNAIKQLPERTRFMKGLFAWVGYRQTFVLFDREPRFQGQTKWNYWKLWNAALDGIFSFSLLPLKVWTYLGSIISLLSLAYASFLILKTITLGVDVPGYASLMVAILFLGGVQLISLGVIGEYLGRVYEEVKARPLYLVSDLWGLEYLPLEKLN |  | binds
